From the supplement of paper PMC9112550, “Optimization of the antimicrobial peptide Bac7 by deep mutational scanning” (BMC Biology, 2022)

The sequences below were run on Escherichia coli TOP10 (assay: shrunken log2 fold change of peptide-encoding DNA abundance (4.5 h post-induction vs induction); higher = less antimicrobial activity (less host growth inhibition)). Conditions: time post-induction: 4.5 h; library: site-saturation at positions 5, 18, 19, 20.
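Also: peptides expressed intracellularly from a pBAD plasmid library in pooled LB shake-flask culture, induced with 0.3% L-arabinose, DNA abundance read by NGS, three biological replicates, DESeq2 with apeglm shrinkage.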

In order of rising “shrunken log2 fold change” value:
1. RRIRPRPPRLPRPRPRPSQCPRP  -0.985
2. RRIRWRPPRLPRPRPRPYIAPRP  -0.825
3. RRIRLRPPRLPRPRPRPCQHPRP  -0.382
4. RRIRLRPPRLPRPRPRPYAAPRP  -0.36
5. RRIRVRPPRLPRPRPRPCFSPRP  -0.356
6. RRIRSRPPRLPRPRPRPCKRPRP  -0.326
7. RRIRFRPPRLPRPRPRPFYMPRP  -0.317
8. RRIRQRPPRLPRPRPRPFFSPRP  -0.313
9. RRIRDRPPRLPRPRPRPITHPRP  -0.305
10. RRIRCRPPRLPRPRPRPCNIPRP  -0.3
11. RRIRYRPPRLPRPRPRPYIQPRP  -0.294
12. RRIRYRPPRLPRPRPRPVMLPRP  -0.256
13. RRIRNRPPRLPRPRPRPPCLPRP  -0.236
14. RRIRDRPPRLPRPRPRPSHQPRP  -0.211
15. RRIRERPPRLPRPRPRPDFCPRP  -0.196
16. RRIRSRPPRLPRPRPRPWNSPRP  -0.19
17. RRIRVRPPRLPRPRPRPASGPRP  -0.188
18. RRIRARPPRLPRPRPRPRMSPRP  -0.186
19. RRIRERPPRLPRPRPRPWKDPRP  -0.162
20. RRIRSRPPRLPRPRPRPQGQPRP  -0.154
21. RRIRYRPPRLPRPRPRPTNGPRP  -0.126
22. RRIRYRPPRLPRPRPRPYVTPRP  -0.115
23. RRIRGRPPRLPRPRPRPSNLPRP  -0.113
24. RRIRCRPPRLPRPRPRPTAMPRP  -0.113
25. RRIRLRPPRLPRPRPRPSNIPRP  -0.103
26. RRIRHRPPRLPRPRPRPHMLPRP  -0.0874
27. RRIRWRPPRLPRPRPRPETVPRP  -0.0769
28. RRIRARPPRLPRPRPRPKEEPRP  -0.0728
29. RRIRCRPPRLPRPRPRPIDQPRP  -0.0719
30. RRIRHRPPRLPRPRPRPGMDPRP  -0.0518
31. RRIRCRPPRLPRPRPRPRNQPRP  -0.0402
32. RRIRLRPPRLPRPRPRPMWPPRP  -0.0364
33. RRIRVRPPRLPRPRPRPGCIPRP  -0.0275
34. RRIRQRPPRLPRPRPRPCDAPRP  -0.027
35. RRIRVRPPRLPRPRPRPSRQPRP  -0.0237
36. RRIRKRPPRLPRPRPRPLNCPRP  -0.0221
37. RRIRNRPPRLPRPRPRPVPMPRP  -0.0134
38. RRIRRRPPRLPRPRPRPDMNPRP  -0.00608
39. RRIRVRPPRLPRPRPRPCKTPRP  -0.00208
40. RRIRKRPPRLPRPRPRPHTCPRP  0.00412
41. RRIRMRPPRLPRPRPRPMWRPRP  0.00628
42. RRIRERPPRLPRPRPRPAETPRP  0.0123
43. RRIRCRPPRLPRPRPRPKYGPRP  0.0136
44. RRIRMRPPRLPRPRPRPDTIPRP  0.0143
45. RRIRFRPPRLPRPRPRPEVIPRP  0.0373
46. RRIRFRPPRLPRPRPRPHSGPRP  0.0508
47. RRIRKRPPRLPRPRPRPFWQPRP  0.0521
48. RRIRARPPRLPRPRPRPLVKPRP  0.0577
49. RRIRSRPPRLPRPRPRPMTKPRP  0.0651
50. RRIRDRPPRLPRPRPRPGIMPRP  0.0786
51. RRIRNRPPRLPRPRPRPTTTPRP  0.082
52. RRIRKRPPRLPRPRPRPSSQPRP  0.0821
53. RRIRDRPPRLPRPRPRPPVHPRP  0.105
54. RRIRMRPPRLPRPRPRPWESPRP  0.109
55. RRIRERPPRLPRPRPRPNAWPRP  0.113
56. RRIRRRPPRLPRPRPRPEHSPRP  0.143
57. RRIRPRPPRLPRPRPRPEDTPRP  0.174
58. RRIRRRPPRLPRPRPRPCDIPRP  0.181
59. RRIRWRPPRLPRPRPRPDFFPRP  0.204
60. RRIRHRPPRLPRPRPRPTWLPRP  0.326
61. RRIRARPPRLPRPRPRPRMCPRP  0.339
62. RRIRPRPPRLPRPRPRPRPEPRP  0.373
63. RRIRPRPPRLPRPRPRPLQRPRP  0.395
64. RRIRARPPRLPRPRPRPTANPRP  0.401
65. RRIRRRPPRLPRPRPRPCCVPRP  0.415
66. RRIRVRPPRLPRPRPRPKPAPRP  0.431
67. RRIRQRPPRLPRPRPRPTRWPRP  0.561
68. RRIRARPPRLPRPRPRPGMSPRP  0.649
69. RRIRSRPPRLPRPRPRPEEPPRP  0.729
70. RRIRDRPPRLPRPRPRPPPWPRP  0.788
71. RRIRDRPPRLPRPRPRPGHPPRP  0.813
72. RRIRGRPPRLPRPRPRPQLFPRP  0.838
73. RRIRKRPPRLPRPRPRPMRGPRP  0.874
74. RRIRRRPPRLPRPRPRPPQLPRP  1.02
75. RRIRMRPPRLPRPRPRPTARPRP  1.22
